These results are taken from patent US20060073571A1.

This experiment deals with recombinant chimeric hLH-R-hCG-β fusion protein (full-length human lutropin hormone receptor, Arg-Ser linker, full-length human chorionic gonadotropin-β) (human). The experiment can be described thus: cell-based or functional assay.
recombinant chimeric hLH-R-hCG-β fusion protein (full-length human lutropin hormone receptor, Arg-Ser linker, full-length human chorionic gonadotropin-β) (human), sequence (chain, as listed by the source mutant limits assumed): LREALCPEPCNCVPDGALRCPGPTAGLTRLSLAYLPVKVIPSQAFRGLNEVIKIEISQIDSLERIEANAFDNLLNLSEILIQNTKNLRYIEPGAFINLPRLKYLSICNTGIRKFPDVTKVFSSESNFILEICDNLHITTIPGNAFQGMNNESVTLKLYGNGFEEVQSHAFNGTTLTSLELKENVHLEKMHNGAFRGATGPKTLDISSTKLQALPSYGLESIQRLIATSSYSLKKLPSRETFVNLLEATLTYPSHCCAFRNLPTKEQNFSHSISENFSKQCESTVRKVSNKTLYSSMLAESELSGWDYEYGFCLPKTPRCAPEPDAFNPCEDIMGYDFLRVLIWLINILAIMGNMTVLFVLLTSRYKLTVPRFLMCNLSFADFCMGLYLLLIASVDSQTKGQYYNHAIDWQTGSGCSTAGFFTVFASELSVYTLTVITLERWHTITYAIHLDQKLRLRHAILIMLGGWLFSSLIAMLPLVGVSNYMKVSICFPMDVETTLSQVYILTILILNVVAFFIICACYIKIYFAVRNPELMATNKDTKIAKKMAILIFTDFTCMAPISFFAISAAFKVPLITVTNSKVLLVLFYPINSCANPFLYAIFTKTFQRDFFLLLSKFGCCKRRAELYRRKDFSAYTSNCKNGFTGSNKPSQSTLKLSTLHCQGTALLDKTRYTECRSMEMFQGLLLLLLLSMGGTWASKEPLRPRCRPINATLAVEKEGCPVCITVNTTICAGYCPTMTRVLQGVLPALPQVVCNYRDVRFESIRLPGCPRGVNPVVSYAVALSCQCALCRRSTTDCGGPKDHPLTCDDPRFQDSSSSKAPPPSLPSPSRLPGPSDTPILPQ

Consider “hCG-β component of the chimeric hLH-R-hCG-β protein (full-length human chorionic gonadotropin-β subunit) (from UniProt P0DN86 21-165) (ligand)”, for which the intracellular cAMP in transfected Sf9 cells in the absence of hCG amounted to 13.2 pmol/L.
